Reference: the supplement of paper PMC12042874
± gives the uncertainty stated by the source.

Assay: amyloid nucleation score (Sup35N fusion, yeast selection) (log enrichment); library NNK2; higher = more nucleation; inactive = no reads after selection
Summary of the method: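 Plasmid inserts were Illumina-sequenced at input and output from psi-negative yeast expressing Sup35N fused to peptides of 20 random codons. The yeast were induced with 100 μM copper sulfate for 24 hours and grown 7 days at 30°C on medium lacking adenine and uracil, and sequences with under 100 input reads were excluded. Nucleation score is the DiMSum log enrichment of output over input reads, centred on the mode score of non-aggregating sequences.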

Row | Substance | amyloid nucleation score
1 | LLVVCSNLQNKVCRRNPEVF | -1.79 ± 0.49
2 | MQTCYSDQMDFVYEAYYCTW | 1.7 ± 0.1
3 | IFCADMVLNFGGMCPARERA | 0.038 ± 0.8
4 | ACDSAIIGWNKIT | 0.504 ± 0.54
5 | AGEYDLIFYLDFYMGNEVIS | 2.29 ± 0.13
6 | RVLRSETYDSFSL | -0.163 ± 0.32
7 | KPLLVN | 0.271 ± 0.46
8 | NCDRPTLEMSVNRRLFSCPE | 0.54 ± 0.27
9 | RYASDFWILNICAGDIVILL | 8.495 ± 0.054
10 | LWFYFFRDYLIGPMWNKIVI | -0.898 ± 1.1
11 | IINSANM | 0.736 ± 0.74
12 | IDGYIQGFHGIRLEQLGGVE | 0.152 ± 0.48
13 | TVIFVCHFTKVDCVSNTQSY | 3.42 ± 0.1
14 | FYTTRMYLVFSYFV | 3.29 ± 0.064
15 | GSHLSSSFTKWMGIPAMVFR | -0.134 ± 0.54
16 | FFGGNCKVK | -0.146 ± 0.32
17 | EDELSPF | 0.453 ± 0.18
18 | TISIFGM | -0.325 ± 0.33
19 | VSHFPGSPLTNKRSMLPAQM | 2.01 ± 0.14
20 | RMQVYGDMSKCKDSWFCFRT | 0.703 ± 0.4
21 | CSTTWGDTIAGHEAGLVSLS | 1.02 ± 0.37
22 | DVRVISNDNAWDDLRLYFDK | 0.36 ± 0.3

Row | Substance | amyloid nucleation score
23 | GHLRVFGVAKKLSTIMNLAR | -0.274 ± 0.45
24 | CASEVDNNSPPRWVRRTAGV | 0.777 ± 0.45
25 | VFTTLDWTSKYALIR | 0.56 ± 0.5
26 | ARTKVIY | -1.34 ± 0.75
27 | MWVWQEPDVWARLCLDGYEK | -0.127 ± 0.45
28 | LAQPCQE | -0.033 ± 0.55
29 | PFYVSRRVCKYAF | -0.301 ± 0.28
30 | FYGRCLTFTAHPSFSRFAR | 0.333 ± 0.61
31 | YCGDLRCCKTHLSCRSCVSN | inactive
32 | LCSRFALWVRKF | -0.291 ± 0.63
33 | DLGMECTQVGRLDVVWELLI | 0.632 ± 0.31
34 | LQTFMNVGVFSGDKEYPCVF | 0.662 ± 0.66
35 | HRMRVSIGATYVTALYQVKD | 3.18 ± 0.095
36 | QTCLHMSIGWVSP | 4.38 ± 0.082
37 | HSMQSVPKWKL | 1.86 ± 0.25
38 | YCERAHALICSLRQVGWVPR | 0.719 ± 0.25
39 | IGESLRYIRRVILSMIFHLA | 1.18 ± 0.66
40 | FLVFVLLGDR | 6.23 ± 0.07
41 | RVSHEHVYLSNFVTPWLCYY | 5.913 ± 0.049
42 | GMYLVENLLFRAQCRSTHWQ | 1.25 ± 0.37
43 | RHCDLQSRLPSTWYLVRYPC | 0.885 ± 0.74
44 | SLVSFFVIKRSYFSTRLCTG | -0.399 ± 0.61

Row | Substance | amyloid nucleation score
45 | RYVLSMFQLLLTYVQL | 0.561 ± 0.23
46 | YLYSNG | inactive
47 | GGIRYVSVFQIFASCCFSRV | 8.977 ± 0.05
48 | NQVQCKCSYKVVEVG | 0.408 ± 0.2
49 | FGNRRSCHDIRSWIDRYLVR | 1.69 ± 0.52
50 | RSIMIRHLKFRARGHTFSVN | 0.143 ± 0.36
51 | RFNGN | -0.541 ± 1.1
52 | GRMNTLDTFLTMAISDDASF | -0.147 ± 0.46
53 | NDSMDHRQSYWGLNPFVYIV | 0.158 ± 0.65
54 | VFGWSVRFNYYIFMSMANDV | 3.62 ± 0.13
55 | LYRRIRCFIYPFCKGVRCLC | -1.77 ± 0.62
56 | LCASHIYL | 0.087 ± 0.79
57 | VVWCGTYVYHDV | 8.885 ± 0.075
58 | LSLRDVGGLLSNLSIMCGKG | 0.144 ± 0.25
59 | MFCKLRFSVFLAWVDVK | 0.356 ± 0.6
60 | RQFLSPNYATECGFQLRVGI | inactive
61 | MAVKRGIHRQADPGITWDTE | 5.17 ± 0.082
62 | LNTSSYFVIDDFWIIFRRCR | -0.814 ± 0.55
63 | SIRRTLVGQRAHEGKFWYGV | -0.504 ± 0.63
64 | LYYGNPEKIPADGLSSHIMQ | 3.7 ± 0.063
65 | ISFWGFYRFRYDMCRRVSDR | -1.34 ± 0.78
66 | SPLHRDCGNQLTE | 0.814 ± 0.17

Row | Substance | amyloid nucleation score
67 | YVENTGASCFGAYK | 2.25 ± 0.11
68 | QSVQFRWRLCLAGFVGTGWR | 3.06 ± 0.089
69 | HATLNPSSLSATSSNPACRL | 0.171 ± 0.31
70 | WGKLRGIPAYDYSLTGCLYV | 0.647 ± 0.8
71 | LSSLYFSLFNYYLFNRFIFN | inactive
72 | RMWFVNNLDDWFLPTCLWDR | inactive
73 | MYYCLGILCGVSTRRGEMSC | 1.17 ± 0.41
74 | NGGSGNQVMLEVTNLVFK | 5.295 ± 0.044
75 | GYRVDLIILKFDLWYEY | inactive
76 | DLLVCC | 1.28 ± 0.26
77 | TRGPR | 0.76 ± 0.46
78 | CRSCVVSYCGCEYLESLGGK | 0.525 ± 0.64
79 | FTSFCMMKGPGLY | -1.44 ± 1.1
80 | VVIHLLPSES | inactive
81 | CHKSACCKILVDDIALFN | -0.419 ± 0.32
82 | SSMLANSMWRSFSVSYGTML | 0.929 ± 0.36
83 | LVSERGSWVGLRFCSRSSVT | 0.359 ± 0.56
84 | MGCYFSSLSTTHKGAVDVQL | 0.13 ± 0.24
85 | YGQKVMPESMKQSFNFMTEI | -0.573 ± 0.63
86 | GFMKPSRYLNMVKFNCRLRS | inactive
